Article PMC3756998, “Use of a Small Peptide Fragment as an Inhibitor of Insulin Fibrillation Process: A Study by High and Low Resolution Spectroscopy” (PLoS ONE, 2013)
Where “and” joins values, the source holds several entries; their conditions need not be identical. Identical values can stand only once. Entries after “also recorded” stand apart in the source; their conditions may differ. Like-named read-outs stand apart in the source and are kept apart here. Ends that are not written are not given here.

Key:
human red blood cells = settings: red cells of human, 1 h, 250 µM
insulin [1] = target: T1, insulin (Bos taurus, UniProt P01317); assay: biochemical; assay type: binding, bovine; settings: apparent Kd
T1 construct: Insulin consists of two polypeptide chains (Chain A –21 residues; Chain B –30 residues) held together by two disulphide bonds; purchased Sigma (St. Louis, MO)
T1 sequence (P01317 25-54 limits assumed): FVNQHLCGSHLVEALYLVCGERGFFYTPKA
T1 sequence (P01317 85-105 limits assumed): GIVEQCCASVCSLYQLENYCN

insulin [2] = settings: literature, cited from earlier work
Text: These agents routed via natural source or synthetic pathways are generally termed as amyloid inhibitors. The idea behind such anti-amyloid agent is to inhibit the creation of amyloidogenic aggregate and/to arrest the amyloid construction.

insulin [3] = target: T1, insulin; assay type: biochemical, bovine
insulin [4] = target: T1, insulin; assay type: biochemical, bovine; settings: pH 2.6
insulin [5] = target: T1, insulin; assay type: biochemical, bovine; settings: pH 2.6; remark: listed apart in the source
insulin [6] = target: T1, insulin; assay type: biochemical, bovine; settings: pH 2.6; remark: listed apart in the source
insulin fibrils = assay type: biochemical, bovine; settings: pH 2.6

**Q.** What does the source list for NIVNVSLVK [NK9, NIVNVSLVK]?
**A.** cytotoxicity (HT1080 cells): less than 5%; hemolysis (human red blood cells): less than 0.5%; Kd (insulin [1]): 2200 nM and 1200 nM

**Q.** Which “effect on insulin fibrillation (in words)” value (insulin [2]; ref [45]–[46]) does the source give for `O=c1c(O)c(-c2ccc(O)c(O)c2)oc2cc(O)cc(O)c12` [quercetin] here?
**A.** interfered with the dissociation of the oligomeric insulin to monomer and also destabilized preformed insulin fibril

**Q.** For “Insulin: 51-residue protein hormone; bovine insulin, two chains held together by two disulphide bonds”, which “cross beta structure formation / helix loss of insulin (FT-IR, in words)” value (insulin [3]) is on record?
**A.** forms the cross beta structure indicative of fibrils beyond 2 h; also recorded: significant increases in the A1628/A1654 ratio was observed after 2 h of incubation

**Q.** And the “β-sheet content of mature fibrils (FT-IR)” value (insulin [3])?
**A.** ~60%

**Q.** What about the hydrodynamic radius (insulin [4]) of the same compound?
**A.** 2.0 nm

**Q.** And the “size of insulin monomer formed” value (insulin [4])?
**A.** 1.3 nm

**Q.** And the “size of large oligomer” value (insulin [4])?
**A.** 24 nm

**Q.** And the “helix content of insulin (CD)” value (insulin [5])?
**A.** 39%

**Q.** And the “Apparent Rate Constant” value (insulin [6])?
**A.** 2.9 ± 0.13 h⁻¹

**Q.** And the “Lag Time” value (insulin [6])?
**A.** 120 min and 120 ± 5 min

**Q.** And the “fibril morphology by TEM” value (insulin fibrils)?
**A.** branched insulin fibrils

**Q.** For Triton X 100 [reference compound], which viability (HT1080 cells) is on record?
**A.** 20%

**Q.** Which “effect on insulin fibrillation (in words)” value (insulin [2]; ref [23]) does the source give for `OCC(F)(F)F` [trifluoroethanol] here?
**A.** on binding with insulin trimer prevented the appearance of soluble oligomers; also recorded: could delay the fibrillation of insulin by interfering with the oligomer to monomer dissociation step
